Reference: US8455205B2, “Metalloproteinase 9 binding proteins” (Dyax Corp., priority 2008, dated 2013)
Entries after “also recorded” stand apart in the source; their conditions may differ.

T1: human MMP-2 (Homo sapiens, UniProt P08253)
T1 construct: purchased BIOMOL MMP MultiPack-1
T1 sequence (P08253 110-660): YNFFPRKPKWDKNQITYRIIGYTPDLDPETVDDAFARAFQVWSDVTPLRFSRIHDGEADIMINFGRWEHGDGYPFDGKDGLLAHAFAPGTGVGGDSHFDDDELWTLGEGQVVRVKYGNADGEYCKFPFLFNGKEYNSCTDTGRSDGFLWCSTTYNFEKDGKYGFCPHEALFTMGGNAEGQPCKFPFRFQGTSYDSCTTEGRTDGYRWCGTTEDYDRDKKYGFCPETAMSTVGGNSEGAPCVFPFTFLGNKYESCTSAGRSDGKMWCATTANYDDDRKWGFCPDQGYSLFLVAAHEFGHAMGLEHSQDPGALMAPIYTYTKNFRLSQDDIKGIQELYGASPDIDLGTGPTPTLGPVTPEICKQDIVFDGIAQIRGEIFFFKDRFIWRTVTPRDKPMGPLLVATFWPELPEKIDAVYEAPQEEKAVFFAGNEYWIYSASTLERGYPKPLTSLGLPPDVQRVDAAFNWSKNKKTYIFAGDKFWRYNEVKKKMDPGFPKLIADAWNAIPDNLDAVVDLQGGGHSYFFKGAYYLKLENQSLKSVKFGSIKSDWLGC


How the values were obtained:
[1] = biological target: T2, MMP-9 (Homo sapiens, UniProt P14780); assay: Affinity ranking of Fabs by BIACORE Flexchip (SPR); format: binding
From the text: Surface Plasmon Resonance (SPR). The interaction of binding protein and a target can be analyzed using SPR. SPR or Biomolecular Interaction Analysis (BIA) detects biospecific interactions in real time, without labeling any of the interactants. Changes in the mass at the binding surface (indicative of a binding event) of the BIA chip result in alterations of the refractive index of light near the surface (the optical phenomenon of surface plasmon resonance (SPR)). The changes in the refractivity generate a detectable signal, which are measured as an indication of real-time reactions between biological molecules. Methods for using SPR are described, for example, in U.S. Pat. No. 5,641,640; Raether, 1988, Surface Plasmons Springer Verlag; Sjolander and Urbaniczky, 1991, Anal. Chem. 63:2338-2345; Szabo et al., 1995, Curr. Opin. Struct. Biol. 5:699-705 and on-line resources provide by BIAcore International AB (Uppsala, Sweden). BIAcore Flexchip can be used to compare and rank interactions in real time, in terms of kinetics, affinity or specificity without the use of labels.
Information from SPR can be used to provide an accurate and quantitative measure of the equilibrium dissociation constant (Kd), and kinetic parameters, including Kon and Koff, for the binding of a binding protein to a target. Such data can be used to compare different biomolecules. For example, selected proteins from an expression library can be compared to identify proteins that have high affinity for the target or that have a slow Koff. This information can also be used to develop structure-activity relationships (SAR). For example, the kinetic and equilibrium binding parameters of matured versions of a parent protein can be compared to the parameters of the parent protein. Variant amino acids at given positions can be identified that correlate with particular binding parameters, e.g., high affinity and slow Koff. This information can be combined with structural modeling (e.g., using homology modeling, energy minimization, or structure determination by x-ray crystallography or NMR). […]
Target sequence in this assay (P14780 94-707): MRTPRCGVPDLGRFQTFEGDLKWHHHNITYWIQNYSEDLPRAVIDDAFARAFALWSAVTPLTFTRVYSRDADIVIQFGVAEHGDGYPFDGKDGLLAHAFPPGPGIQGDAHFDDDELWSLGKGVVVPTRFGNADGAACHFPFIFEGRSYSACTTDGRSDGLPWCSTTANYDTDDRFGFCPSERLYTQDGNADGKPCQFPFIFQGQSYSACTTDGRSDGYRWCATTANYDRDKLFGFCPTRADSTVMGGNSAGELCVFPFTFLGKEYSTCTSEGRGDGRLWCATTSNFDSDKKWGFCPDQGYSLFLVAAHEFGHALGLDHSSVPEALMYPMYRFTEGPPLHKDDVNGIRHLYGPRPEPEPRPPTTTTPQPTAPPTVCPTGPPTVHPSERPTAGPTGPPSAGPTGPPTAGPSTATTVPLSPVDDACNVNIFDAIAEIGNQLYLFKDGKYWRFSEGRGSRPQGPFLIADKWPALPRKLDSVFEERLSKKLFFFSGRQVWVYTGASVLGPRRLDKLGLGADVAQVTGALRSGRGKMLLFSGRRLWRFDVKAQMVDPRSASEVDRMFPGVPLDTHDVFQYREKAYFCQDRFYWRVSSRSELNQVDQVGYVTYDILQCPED

[2] = biological target: T3, mouse MMP-9 (Mus musculus, UniProt P41245); assay: Inhibition of mouse MMP-9 activity, fluorogenic substrate; format: biochemical
T3 construct: purchased R&D 909-MM
From the text: (§1) The human MMP-1, -2, -3, -7, -8, -9, -10, -12, -13, and -14 were obtained from BIOMOL (Human MMP-9: SE-244, BIOMOL; Human MMP-14: SE-259, BIOMOL; Human MMP-1, -2, -8, -13: MMP MultiPack-1 from BIOMOL; Human MMP-3, -7, -10, -12: MMP MultiPack-2 from BIOMOL). The mouse MMP-2 and -9 were from R&D (Mouse MMP-9: 909-MM, R&D Mouse MMP-2: 924-MP, R&D). The substrate was Mca-Pro-Lys-Pro-Leu-Ala-Leu-Dap(Dnp)-Ala-Arg-NH2 (SEQ ID NO: 951)(M-2225, Bachem) for human MMP-3, and Mca-Lys-Pro-Leu-Gly-Leu-Dap(Dnp)-Ala-Arg-NH2 (SEQ ID NO: 952)(M-2350, Bachem) for all the other enzymes. The substrate concentration in the assay was 10 μM.

[3] = biological target: T2, MMP-9; assay: Inhibition of human MMP-9 activity, fluorogenic peptide substrate (IC50 / residual activity at 1 μM antibody); format: biochemical; set-up: Human MMP-9 catalytic domain (BIOMOL, SE-244); purchased BIOMOL SE-244
Method: MMP-9 binding proteins can be characterized in assays that measure their modulatory activity toward MMP-9 or fragments thereof in vitro or in vivo. For example, MMP-9 can be combined with a substrate such as Mca-Pro-Leu-Ala-Cys(Mob)-Trp-Ala-Arg-Dap(Dnp)-NH2 (SEQ ID NO: 12) under assay conditions permitting cleavage by MMP-9. The assay is performed in the absence of the MMP-9 binding protein, and in the presence of increasing concentrations of the MMP-9 binding protein. The concentration of binding protein at which 50% of the MMP-9 activity (e.g., binding to the substrate) is inhibited is the IC50 value (Inhibitory Concentration 50%) or EC50 (Effective Concentration 50%) value for that binding protein.
(§2) After sequencing analysis, the phage display were converted into sFabs and then into IgG1s. Their ability to inhibit MMP-9 and other MMPs (1, 3, 7, 8, 9, 10, 12, 13, 14) was determined by usual means. Compounds were initially screened at 1 μM against MMP-9 and those compounds that inhibited MMP-9>80% were subjected to additional screens against purified recombinant human MMPs. For these additional screens, an IC50 value was determined.
The human MMP-1, -2, -3, -7, -8, -9, -10, -12, -13, and -14 were obtained from BIOMOL (Human MMP-9: SE-244, BIOMOL; Human MMP-14: SE-259, BIOMOL; Human MMP-1, -2, -8, -13: MMP MultiPack-1 from BIOMOL; Human MMP-3, -7, -10, -12: MMP MultiPack-2 from BIOMOL). […]
Target sequence in this assay (P14780 107-444 limits assumed): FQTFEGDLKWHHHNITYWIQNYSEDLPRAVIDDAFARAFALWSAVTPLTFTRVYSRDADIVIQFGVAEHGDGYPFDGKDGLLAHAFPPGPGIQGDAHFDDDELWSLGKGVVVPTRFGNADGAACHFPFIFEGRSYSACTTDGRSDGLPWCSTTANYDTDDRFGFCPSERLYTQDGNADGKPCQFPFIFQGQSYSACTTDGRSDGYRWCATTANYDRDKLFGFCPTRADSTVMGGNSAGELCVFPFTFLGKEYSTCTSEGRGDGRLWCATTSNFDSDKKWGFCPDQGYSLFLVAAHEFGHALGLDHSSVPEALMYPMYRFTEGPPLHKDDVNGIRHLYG

[4] = biological target: T4, human MMP-8 (Homo sapiens, UniProt P22894); assay: MMP selectivity panel, residual enzyme activity; format: biochemical; settings: FIG. 5
T4 construct: purchased BIOMOL MMP MultiPack-1
Method: as §2, §1

[5] = biological target: T5, human MMP-3 (Homo sapiens, UniProt P08254); assay: MMP selectivity panel, residual enzyme activity; format: biochemical; settings: FIG. 5
T5 construct: purchased BIOMOL MMP MultiPack-2
Method: as §2, §1

[6] = biological target: T6, human MMP-14 (Homo sapiens, UniProt P50281); assay: MMP selectivity panel, residual enzyme activity; format: biochemical; settings: FIG. 5
T6 construct: purchased BIOMOL SE-259
Method: as §2, §1

[7] = biological target: T7, human MMP-12 (Homo sapiens, UniProt P39900); assay: MMP selectivity panel, residual enzyme activity; format: biochemical; settings: FIG. 5
T7 construct: purchased BIOMOL MMP MultiPack-2
Method: as §2, §1

[8] = biological target: T1, human MMP-2; assay: MMP selectivity panel, residual enzyme activity; format: biochemical; settings: FIG. 5
From the text: as §1

T3 sequence (P41245 108-730): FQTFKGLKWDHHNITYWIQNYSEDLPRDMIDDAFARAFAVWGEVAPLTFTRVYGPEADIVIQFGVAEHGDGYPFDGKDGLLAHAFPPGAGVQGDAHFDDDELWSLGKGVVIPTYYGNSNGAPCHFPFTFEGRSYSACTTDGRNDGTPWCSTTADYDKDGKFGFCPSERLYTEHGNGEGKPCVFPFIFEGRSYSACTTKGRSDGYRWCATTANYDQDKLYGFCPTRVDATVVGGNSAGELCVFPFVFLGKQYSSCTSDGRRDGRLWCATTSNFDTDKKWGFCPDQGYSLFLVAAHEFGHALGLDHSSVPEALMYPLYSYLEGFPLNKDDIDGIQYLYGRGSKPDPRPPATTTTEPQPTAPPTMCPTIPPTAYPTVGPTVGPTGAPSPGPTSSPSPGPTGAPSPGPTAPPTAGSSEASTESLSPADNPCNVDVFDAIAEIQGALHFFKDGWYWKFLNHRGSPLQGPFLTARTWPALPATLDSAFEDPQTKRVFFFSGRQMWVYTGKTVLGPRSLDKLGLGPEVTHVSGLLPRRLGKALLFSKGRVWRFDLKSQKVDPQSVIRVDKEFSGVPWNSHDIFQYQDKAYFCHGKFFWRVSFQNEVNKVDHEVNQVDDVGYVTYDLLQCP
T4 sequence (P22894 101-467): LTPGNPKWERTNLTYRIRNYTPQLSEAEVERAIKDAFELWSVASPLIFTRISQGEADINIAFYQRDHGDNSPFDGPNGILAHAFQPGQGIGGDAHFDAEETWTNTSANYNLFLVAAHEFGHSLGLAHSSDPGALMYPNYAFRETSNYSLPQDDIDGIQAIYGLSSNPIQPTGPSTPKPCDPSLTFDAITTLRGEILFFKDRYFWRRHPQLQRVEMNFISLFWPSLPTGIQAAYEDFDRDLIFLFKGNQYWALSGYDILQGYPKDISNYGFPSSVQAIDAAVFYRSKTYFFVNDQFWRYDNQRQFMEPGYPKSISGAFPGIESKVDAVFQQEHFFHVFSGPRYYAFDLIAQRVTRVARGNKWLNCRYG
T7 sequence (P39900 106-470): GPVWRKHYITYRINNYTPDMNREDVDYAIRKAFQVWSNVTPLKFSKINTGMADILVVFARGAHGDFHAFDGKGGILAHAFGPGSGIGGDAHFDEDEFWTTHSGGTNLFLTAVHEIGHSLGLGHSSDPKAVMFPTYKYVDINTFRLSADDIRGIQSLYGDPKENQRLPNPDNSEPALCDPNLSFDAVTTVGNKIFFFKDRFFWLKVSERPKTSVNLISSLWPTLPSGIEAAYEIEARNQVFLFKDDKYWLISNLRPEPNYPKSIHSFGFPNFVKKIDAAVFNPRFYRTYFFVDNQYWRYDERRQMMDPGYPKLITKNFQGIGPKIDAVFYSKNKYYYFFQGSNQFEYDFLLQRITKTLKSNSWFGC
T5 sequence (P08254 100-477): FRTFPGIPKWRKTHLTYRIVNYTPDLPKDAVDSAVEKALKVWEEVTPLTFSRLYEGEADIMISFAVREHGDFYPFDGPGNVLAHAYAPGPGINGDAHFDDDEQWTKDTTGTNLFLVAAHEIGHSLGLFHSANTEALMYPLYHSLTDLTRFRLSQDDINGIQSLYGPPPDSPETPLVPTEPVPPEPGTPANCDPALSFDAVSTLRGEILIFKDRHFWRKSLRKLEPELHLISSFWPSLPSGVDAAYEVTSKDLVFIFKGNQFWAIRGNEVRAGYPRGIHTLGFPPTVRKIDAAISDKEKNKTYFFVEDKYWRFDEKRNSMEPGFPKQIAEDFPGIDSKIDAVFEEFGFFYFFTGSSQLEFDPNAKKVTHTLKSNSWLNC

Molecule | Difference from reference ([1]; Flexchip spot signal, Fabs from the R0017 plate) | ka ([1]; Flexchip, Fabs) | kd ([1]; Flexchip, Fabs) | Inhibition of mouse MMP-9 activity (in words) [2] | Inhibition of human MMP-9 activity (in words) ([3]; FIG. 5 / Example 12) | Selectivity for MMP-9 versus other MMPs tested ([3]; compared to the other human and murine MMPs tested) | Inhibition of human MMP-8 (in words) [4] | Inhibition of human MMP-3 (in words) [5] | Inhibition of human MMP-14 (in words) [6] | Inhibition of human MMP-12 (in words) [7] | Inhibition of human MMP-2 (in words) [8]
TIMP-1: endogenous MMP inhibitor, control spot on Flexchip | 845.8099 | No Binding * | No Binding * | – | – | – | – | – | – | – | –
539A-M0240-B03: Parental isolate (sFab; IgG); h/mMMP-9 antibody inhibitor (antibody, V domains shown) VL: QYELTQPRSVSGSPGQSVTISCTGTSSDVGGYNYVSWYQQHPGKAPKLMIYDVSKRPSGVPDRFSGSKSGNTASLTISGLQAEDEADYYCCSYAGSYTLVFGGGTKLTVL VH: EVQLLESGGGLVQPGGSLRLSCAASGFTFSTYQMVWVRQAPGKGLEWVSVIYPSGGPTVYADSVKGRFTISRDNSKNTLYLQMNSLRAEDTAVYYCARGEDYYDSSGPGAFDIWGQGTMVTVSS | – | – | – | inhibits; also recorded: decrease or inhibit | inhibits; also recorded: decrease or inhibit | selective inhibitor of MMP-9 | not | not | not | not | not
